Laboratory results: article PMC3041725

Experiments:
[1] = target: VN-Exd fusion protein, expressed in Drosophila embryos (Drosophila melanogaster) (UniProt P40427); experiment: split reporter (BiFC, NanoBiT); competition against split Venus BiFC in living Drosophila embryos: an unfused ('cold') protein co-expressed with the two fusion proteins
[2] = target: VC-Exd fusion protein, expressed in Drosophila embryos (Drosophila melanogaster) (UniProt P40427); experiment: split reporter (BiFC, NanoBiT); split Venus (VN 1-173, VC 155-238) BiFC in living Drosophila embryos; fusion proteins expressed by UAS/Gal4 (abdA-Gal4, en-Gal4, btl-Gal4 and others); embryos kept at 4°C for 28 h before confocal imaging
VC-Exd fusion protein, expressed in Drosophila embryos (Drosophila melanogaster), sequence (P40427 whole entry, the tested form may be a part): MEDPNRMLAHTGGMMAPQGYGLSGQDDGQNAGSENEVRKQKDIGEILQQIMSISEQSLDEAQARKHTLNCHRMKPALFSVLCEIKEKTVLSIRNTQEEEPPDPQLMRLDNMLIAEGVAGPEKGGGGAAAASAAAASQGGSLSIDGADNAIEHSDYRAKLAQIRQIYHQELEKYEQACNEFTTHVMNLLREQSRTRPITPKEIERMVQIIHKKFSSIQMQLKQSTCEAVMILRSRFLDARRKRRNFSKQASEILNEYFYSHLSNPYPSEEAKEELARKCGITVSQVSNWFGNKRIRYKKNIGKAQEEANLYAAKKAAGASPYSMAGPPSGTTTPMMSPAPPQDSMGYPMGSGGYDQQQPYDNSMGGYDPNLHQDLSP

VN-Exd fusion protein, expressed in Drosophila embryos (Drosophila melanogaster), sequence (P40427 whole entry, the tested form may be a part): as above
AbdominalA (AbdA), unfused parental wild type protein, expressed in Drosophila embryos, P29555 1-590 (natural protein; other documents disagree on this pair), sequence (P29555 whole entry, the tested form may be a part): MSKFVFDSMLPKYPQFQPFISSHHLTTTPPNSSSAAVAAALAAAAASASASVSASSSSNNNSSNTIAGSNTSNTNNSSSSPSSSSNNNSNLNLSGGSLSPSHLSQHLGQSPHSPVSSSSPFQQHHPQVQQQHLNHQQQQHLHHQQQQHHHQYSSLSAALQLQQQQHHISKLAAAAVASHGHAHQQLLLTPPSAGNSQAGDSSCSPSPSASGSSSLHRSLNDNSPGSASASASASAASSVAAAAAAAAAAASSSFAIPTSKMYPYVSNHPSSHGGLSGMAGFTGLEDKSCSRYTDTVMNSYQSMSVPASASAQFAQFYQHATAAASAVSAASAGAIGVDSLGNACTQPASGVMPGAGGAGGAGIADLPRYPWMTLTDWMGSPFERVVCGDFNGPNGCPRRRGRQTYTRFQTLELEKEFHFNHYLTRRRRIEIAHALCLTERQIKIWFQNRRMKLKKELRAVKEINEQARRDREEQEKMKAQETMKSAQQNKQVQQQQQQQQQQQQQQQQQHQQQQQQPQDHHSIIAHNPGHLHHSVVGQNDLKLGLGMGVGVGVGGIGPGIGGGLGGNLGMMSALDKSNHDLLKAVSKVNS
VN-AbdA fusion protein, expressed in Drosophila embryos, P29555 1-590 (natural protein; other documents disagree on this pair), sequence (P29555 whole entry, the tested form may be a part): as above

| percent loss of BiFC between VC-AbdA and VN-Exd [1] | fold weaker BiFC signal than VC-AbdA/VN-Exd [2] | Substance |
| --- | --- | --- |
| 80% | – | AbdominalA (AbdA), unfused parental wild type protein, expressed in Drosophila embryos, P29555 1-590 (natural protein; other documents disagree on this pair) |
| – | 5 fold | VN-AbdA fusion protein, expressed in Drosophila embryos, P29555 1-590 (natural protein; other documents disagree on this pair) |
